Reference: patent publication EP4659810A1 (Université de Strasbourg, dated 2025)

T1: VP1 on entire replicative virions of BK virus genotype Ia (Dunlop strain; ATCC VR-837) (BK virus genotype Ia (Dunlop strain), UniProt P03088 1-362)
T1 sequence: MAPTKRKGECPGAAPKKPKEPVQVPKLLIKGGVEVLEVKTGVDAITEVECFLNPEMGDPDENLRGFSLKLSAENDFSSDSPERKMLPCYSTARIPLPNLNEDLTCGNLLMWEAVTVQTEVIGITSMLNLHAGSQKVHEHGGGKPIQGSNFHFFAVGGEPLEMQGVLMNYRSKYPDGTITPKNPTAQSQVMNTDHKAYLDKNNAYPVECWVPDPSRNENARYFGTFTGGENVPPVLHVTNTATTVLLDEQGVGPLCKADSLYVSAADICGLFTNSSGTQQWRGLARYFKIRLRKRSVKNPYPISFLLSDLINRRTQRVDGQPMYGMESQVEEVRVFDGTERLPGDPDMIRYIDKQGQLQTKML

T2: VP1 on BKV genotype II pseudovirions (GBR-12; AB263920) (BK virus genotype II (GBR-12; AB263920), UniProt P14996 1-362)
T2 chain: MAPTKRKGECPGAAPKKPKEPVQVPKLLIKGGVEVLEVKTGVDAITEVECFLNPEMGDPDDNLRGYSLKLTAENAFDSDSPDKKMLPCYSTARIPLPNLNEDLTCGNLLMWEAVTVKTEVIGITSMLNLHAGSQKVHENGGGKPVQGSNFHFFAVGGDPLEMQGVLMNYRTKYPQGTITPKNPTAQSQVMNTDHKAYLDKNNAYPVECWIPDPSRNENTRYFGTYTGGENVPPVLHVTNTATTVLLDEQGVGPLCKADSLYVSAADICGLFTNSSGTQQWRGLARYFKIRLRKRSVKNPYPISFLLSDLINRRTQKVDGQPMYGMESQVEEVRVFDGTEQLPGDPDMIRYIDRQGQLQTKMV

T3: VP1 on BKV genotype Ia pseudovirions (BK-D; JF894228) (BK virus genotype Ia (BK-D; JF894228), UniProt P03088 1-362)
T3 sequence: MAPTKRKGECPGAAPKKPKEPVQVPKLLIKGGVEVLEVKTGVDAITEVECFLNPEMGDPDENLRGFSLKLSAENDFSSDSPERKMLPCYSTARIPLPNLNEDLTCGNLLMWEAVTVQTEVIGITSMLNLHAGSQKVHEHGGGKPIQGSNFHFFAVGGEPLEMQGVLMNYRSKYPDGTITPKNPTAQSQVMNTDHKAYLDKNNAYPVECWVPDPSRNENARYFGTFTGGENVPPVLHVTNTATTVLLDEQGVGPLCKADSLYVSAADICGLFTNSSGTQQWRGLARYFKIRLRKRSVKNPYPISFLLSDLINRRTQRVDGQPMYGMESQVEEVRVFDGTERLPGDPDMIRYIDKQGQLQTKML

B1: monoclonal antibody D10P4 (antibody, V domains shown)
VH: EVQLLESGGGLVQPGGSLRLSCVASGFSIRGYAMNWVRQAPGKGLEWVSSLTSNGATTYYADSVKGRFTISRDNSKNTLFLQMHSLRGEDTAVYYCAKDRDAEWLGSEPFDPWGQGTLVTVSS
VL: EIVLTQSPGTLSLSPGERATLSCRASQRVSSSYLAWYQHKFGQAPRLLIYGASRRATGIPDRFSGSGSGTDFTLTISRLEPEDFAVYYCQQYGSSPRSFGQGTKLEIK
B2: monoclonal antibody E3P7 (antibody, V domains shown)
VH: EVQLLESGGGLVQPGGSLRLSCAASGFSFRSYAMNWVRQAPGKGLEWVSSLNSAGVSTYYAESVKGRFTISRDNSKNTLYLQMNSLRGEDTAVYYCAKDRGVEWLGSEPIDPWGQGTLVTVSS
VL: EIVLTQSPGTLSLSPGERATLSCRASQRVSSNYLAWYQHKPGQAPRLLIYRASSRATGIPDRFSGSGSGTDFTLTISRLEPEDFAVYYCQQYGSSPRSFGQGTKLEIK
B3: monoclonal antibody D6P7 (antibody, V domains shown)
VH: EVQLLESGGGLVQPGGSLRLSCAASGFNFRSYGMNWVRQAPGKGLEWVSSLRSSGVTTYYADSVKGRFTISRDNSKNTLYLQMNSLRGEDTAVYYCAKDRDAEWLGSEPFDPWGQGTLVTVSS
VL: EIVLTQSPGTLSLSPGERATLSCRASQSLSNSYLAWYQHKPGLAPRLLIYDASSRATGIPDRFSGSESGTDFTLTISRLEPEDFAVYYCQQYGSPPRSFGQGTKLEIK
notes: Human mAb in human-IgG (heavy, kappa) expression plasmids, made in HEK293F
B4: monoclonal antibody G5P4 (antibody, V domains shown)
VH: EVQLLESGGGLVQPGGSLRLSCVASGFSLRGYAMNWVRQAPGRGLEWVSSLTSNGATAYYADSVKGRFTISRDNFKNTLYLQMHSLRGEDTAVYYCARDRDAEWLGSEPFDPWGQGTMVTVSS
VL: not shown
notes: as for B3

Tests used:
[1] = target: T1, VP1 on entire replicative virions of BK …; assay: cell-based or functional assay
[2] = target: VP1 on entire replicative virions of BKV genotype II (patient's isolate) (BK virus genotype II); assay: cell-based or functional assay
[3] = target: T2, VP1 on BKV genotype II pseudovirions …; assay: cell-based or functional assay
[4] = target: T4, VP1 pentamer of BKV genotype IV (BK virus genotype IV); assay: BLI (OctetRED96e), biotinylated VP1 pentamer on streptavidin sensor, mAb 0 to 40 nM in solution
T4 construct: Obtained by gene synthesis and subcloned into pESPRIT002; also called VP1 pentamer from genotype IV

[5] = target: T3, VP1 on BKV genotype Ia pseudovirions …; assay: cell-based or functional assay

Binder | IC50, neutralization of fully replicative BKV virions (MRC5 cells) [1] [ng/mL] | IC50, neutralization of fully replicative BKV virions (MRC5 cells) [2] [ng/mL] | IC50, neutralization of BKV pseudovirions (luciferase, 293TT cells) [3] [ng/mL] | Kd [4] [nM] | IC50, neutralization of BKV pseudovirions (luciferase, 293TT cells) [5] [ng/mL]
B1 | 0.06 | 0.05 | – | – | –
B2 | 0.03 | 0.005 | – | – | –
B3 | – | – | 0.2 | 32.1 | –
B4 | – | – | – | 136 | 0.2
